One may read the IC50 as the midpoint of a concentration-inhibition curve. A lower IC50 goes with greater potency in that assay. What is called IC80 is the point of the concentration-response curve where the effect stands at 80%.

Common to all, as to assay: cell-based or functional assay
The target of experiment [1] is HIV-1 Env of pseudovirus X1193_c1 (clade G) (HIV-1).
The target of experiment [2] is HIV-1 Env of pseudovirus C2101.c01 (clade CRF01_AE) (HIV-1).
Experiment [3] has as its target HIV-1 Env of pseudovirus BJOX025000.01.1 (clade CRF01_AE (T/F)) (HIV-1).
The target in experiment [4] is HIV-1 Env of pseudovirus T251-18 (clade CRF02_AG) (HIV-1).
Experiment [5] addresses HIV-1 Env of pseudovirus CNE5 (clade CRF01_AE) (HIV-1).
Experiment [6] has as its target HIV-1 Env of pseudovirus T255-34 (clade CRF02_AG) (HIV-1).
Experiment [7] concerns the target HIV-1 Env pseudovirus 928-28 (HIV-1).
Experiment [8] deals with HIV-1 Env pseudovirus 6545.v4.c1 (HIV-1).
The target in experiment [9] is HIV-1 Env pseudovirus X1254_c3 (HIV-1).
Experiment [10] deals with HIV-1 Env pseudovirus 3016.v5.c45 (HIV-1).
Experiment [11] deals with HIV-1 Env pseudovirus 3817.v2.c59 (HIV-1).
Experiment [12] addresses HIV-1 Env pseudovirus X1632_S2_B10 (HIV-1).
Experiment [13] has as its target HIV-1 Env pseudovirus 3103.v3.c10 (HIV-1).
The target in experiment [14] is HIV-1 Env pseudovirus C4118.c09 (HIV-1).
Experiment [15] deals with HIV-1 Env pseudovirus 231966.c02 (HIV-1).
Experiment [16] addresses HIV-1 Env pseudovirus T278-50 (HIV-1).
Experiment [17] concerns the target HIV-1 Env pseudovirus T250-4 (HIV-1).
Experiment [18] deals with HIV-1 Env pseudovirus P0402_c2_11 (HIV-1).
Experiment [19] concerns the target HIV-1 Env pseudovirus 6480.v4.c25 (HIV-1).
Experiment [20] has as its target HIV-1 Env pseudovirus X2088_c9 (HIV-1).

Some results are limits rather than exact numbers.

As for 10-1074 (antibody), the IC50, titer in TZM.bl cells in experiment [1] was 0.083 µg/mL; in experiment [2] it was greater than 50 µg/mL; in [3], greater than 50 µg/mL; in experiment [4], 1.08 µg/mL; in experiment [5] it was greater than 50 µg/mL; in experiment [6], greater than 50 µg/mL. Also, the IC80, titer in TZM.bl cells was 0.475 µg/mL in experiment [1]; greater than 50 µg/mL in experiment [2]; greater than 50 µg/mL in experiment [3]; 7.39 µg/mL in [4]; greater than 50 µg/mL in experiment [5]; greater than 50 µg/mL in experiment [6].
Consider 10E8 (antibody), for which the IC50, titer in TZM.bl cells stood at 0.497 µg/mL in experiment [1]; 1.92 µg/mL in experiment [2]; 0.107 µg/mL in experiment [3]; 2.36 µg/mL in experiment [4]; 1.41 µg/mL in experiment [5]; 0.778 µg/mL in experiment [6]. The IC80, titer in TZM.bl cells in experiment [1] was 4.2 µg/mL; in experiment [2], 8.26 µg/mL; in experiment [3], 6.33 µg/mL; in experiment [4] it was greater than 10 µg/mL; in experiment [5] it was 9.64 µg/mL; in experiment [6] it was 4.21 µg/mL.
Take N49P19 (antibody): the IC50 in [7] is 2.73 µg/mL; in experiment [8], greater than 50 µg/mL; in experiment [9], greater than 50 µg/mL; in experiment [10], greater than 50 µg/mL; in experiment [11], greater than 50 µg/mL; in [12], greater than 50 µg/mL. Moreover, the IC50 was greater than 50 µg/mL in experiment [13]; 0.386 µg/mL in [14]; 0.653 µg/mL in [15]; greater than 50 µg/mL in experiment [16]; greater than 50 µg/mL in experiment [17]; 0.448 µg/mL in experiment [18]. Also, the values for the IC50 in experiment [19] and in experiment [20] were 3.04 µg/mL and 1.4 µg/mL, respectively. The IC80 is 9.63 µg/mL in [7]; greater than 50 µg/mL in experiment [8]; greater than 50 µg/mL in [9]; greater than 50 µg/mL in experiment [10]; greater than 50 µg/mL in experiment [11]; greater than 50 µg/mL in experiment [12]. Moreover, the IC80 in experiment [13] was greater than 50 µg/mL; in [14], 1.36 µg/mL; in [15], 4.55 µg/mL; in experiment [16], greater than 50 µg/mL; in experiment [17], greater than 50 µg/mL; in experiment [18], 2.63 µg/mL. The IC80 in experiment [19] was 28.2 µg/mL; in experiment [20], 3.76 µg/mL. Moreover, the MPI in experiment [7] came out at 97; in [8], 2; in experiment [9], 48; in experiment [10], 9; in experiment [11], 26; in [12] it was 14. In addition, the MPI in experiment [13] was 0; in experiment [14] it was 100; in [15] it was 100; in experiment [16] it was 35; in [17], 7; in experiment [18], 100. The MPI in [19] came out at 87; in experiment [20], 99.
In the case of PG9 (antibody), the IC50, titer in TZM.bl cells in experiment [1] was 0.105 µg/mL; in experiment [2], 0.034 µg/mL; in experiment [3], 0.144 µg/mL; in experiment [4], greater than 50 µg/mL; in [5], 0.018 µg/mL; in experiment [6], 0.023 µg/mL. For the same substance, the IC80, titer in TZM.bl cells in [1] is 0.304 µg/mL; in experiment [2], 0.099 µg/mL; in experiment [3] it was 0.335 µg/mL; in experiment [4], greater than 50 µg/mL; in experiment [5], 0.051 µg/mL; in experiment [6], 0.134 µg/mL.
Turning to PG16 (antibody), the IC50, titer in TZM.bl cells was 0.018 µg/mL in experiment [1]; 0.012 µg/mL in experiment [2]; 0.071 µg/mL in [3]; 1.72 µg/mL in [4]; 0.008 µg/mL in experiment [5]; 0.024 µg/mL in [6]. The IC80, titer in TZM.bl cells in experiment [1] was 0.11 µg/mL; in experiment [2], 0.238 µg/mL; in experiment [3], greater than 50 µg/mL; in experiment [4], 44.7 µg/mL; in [5], 0.033 µg/mL; in [6], 0.125 µg/mL.
